Patent US20150125397A1, “DUAL SPECIFIC BINDING PROTEINS DIRECTED AGAINST IMMUNE CELL RECEPTORS AND AUTOANTIGENS” (ABBVIE INC., priority 2013, published 2015)

Key:
[1] = test system: DNA; test: Antinuclear antibody (ANA) test; type: binding; set-up: key to ANA score, relative result: (X)-(XXX) indicates relative results; (XX): (X)-(XXX) indicates relative results; (X)-(XXX) indicates relative results; details: for ANA score / ANA score, relative result: ANA staining at 10 μg/ml
Protocol: The cloned BWR4 and PA4 antibodies as well as the DVD-Ig proteins were tested for ANA reactivity using the ANA test kit. Briefly, the DVD-Ig proteins and antibodies were diluted to […] in blocking buffer (1% BSA in PBS). The DVD-Ig proteins and antibodies were added to separate wells of an ANA slide at 50 μl/well and incubated in a moist chamber for 2 hours at room temperature (RT). The wells were then washed 3× with PBS. To detect bound antibodies, Alexa Fluor 488 conjugated goat α-human IgG (α-hIgG) was then added at a dilution of 1:1,000 and the slide incubated in a moist chamber for 1 hour. Unbound detecting antibody was removed by immersing the slide in a jar containing PBS and incubating for 10 minutes at RT with gentle rocking. The prior step was repeated 2× and 10 μl of Prolong® Gold Antifade was added to each well and a 24 mm×60 mm #1 cover glass seated on top. The covered slide was incubated overnight at RT and then sealed by applying clear nail polish to the edges. Binding of the DVD-Ig proteins and antibodies to the slides was assessed by fluorescence microscopy.
DVD-Ig proteins DVD3751-DVD3760 were characterized by antinuclear antibody (ANA) staining at 10 μg/ml according to the method of Example 2.4.
ANA: HEp-2 human tissue culture substrate slides were incubated with 5 μg/ml of the anti-DNA-IgG2a or the DVD-Ig™ binding protein for 2 hours at RT. The slides were washed and bound antibodies were detected with Alexa-488 goat anti-human antibody or DyLight 488 goat anti-mouse antibody.

[2] = test system: Dnase2−/− Ifnar1−/− DKO B cells; test: 3H-thymidine incorporation of B220-purified B cells, DKO; type: cell-based, mouse; details: 24 hours, FIG. 10C
Description: (§1) Mice: RF and Tlr-9^−/− mice have been described previously (Uccellini et al. (2008) J. Immunol. 181:5875-5884), The DNase II-deficient mice on a C57BL/6 background were kindly provided by Dr. S, Nagata and obtained from the RIKEN Institute. […] and Unc93B1-deficient mice were obtained from Jackson Lab. DnaseII^−/− Ifnar1^−/− (Het), DnaseII^−/− Ifnar1−/− (DKO), and DnaseII^−/− Unc93b1^−/− (TKO), were bred at UMMS. All mice were maintained at the Department of Animal Medicine of the University of Massachusetts Medical School in accordance with the regulations of the American Association for the Accreditation of Laboratory Animal Care.
(§2) Proliferation of B220+ B cells: B cells were purified by magnetic bead separation using CD45R/B220-conjugated magnetic particles (BD Biosciences, San Jose, Calif., USA) and stimulated as described previously (Nundel et al. (2013) J. Leukoc. Biol. 94:865-875) with 15 μg/ml goat anti-mouse IgM F(ab′)2 (Jackson ImmunoResearch), ODN1826 (CpG; Idera Pharmaceuticals), anti-DNA-mAb (Leadbetter et al. (2002) Nature 416:603-607), or DVD-Ig proteins (1 μg/ml). B cell proliferation was assessed by ^3H-thymidine (Amersham Biosciences, Piscataway, N.J., USA) incorporation at 24 hours post-stimulation. For long-term proliferation assays, B220-purified B cells were labeled with a final concentration of 2.5 μM CFSE (Life Technologies) in PBS for 2 minutes. […]

[3] = test system: Dnase2−/− Ifnar1−/− Unc93b1−/− TKO B cells; test: 3H-thymidine incorporation of B220-purified B cells, TKO; type: cell-based, mouse; details: 24 hours, FIG. 10C
Description: as §1, §2

[4] = test system: wild type (WT) primary B cells; test: CFSE dilution / TO-PRO-3 FACS of wild type B cells (Example 4); type: cell-based, mouse; details: 72 hours, FIG. 4
Protocol: Primary murine B cells were purified by positive selection as described above. For cultures >48 hours old, proliferation was quantified by carboxyfluorescein diacetate, succinimidyl ester (CFSE) dilution and cell death by TO-PRO-3 binding. To label the cells with CFSE, the cells were first washed 2 times with PBS. Next, the stock of CFSE was diluted to 10 μM in PBS and the cells were brought to 1×10^7 cells/ml. The cells were mixed at a 1:1 ratio with 10 μM CFSE and mixed gently for 2 minutes. The CFSE labeling reaction was stopped by adding heat inactivated fetal calf serum equal in volume to the starting volume for the cell suspension. The cells were washed two times with media and resuspended to 1-4×10^6 cells/ml and were incubated with 0.5 μg/ml DVD-Ig proteins (DVD3759 and DVD3754) or antibodies, with or with out 0.05 μg/ml Blys. Proliferation was measured by fluorophore dilution at 60-72 hours by flow cytometry. […]
To determine if IRAK4 kinase activity is required for activation and/or death induced TLR9 via DVD3759, either wild type (WT), IRAK2 knock out (IRAK2KO) or IRAK 4 knock-in (IRAK4 KI) primary B cells were purified and tested in a method similar to Example 2.7. […] After 72 hours, cells were stained with 500 nM of the cell permeable DNA stain TOP-RO-3 and analyzed by FACS. Cell division was determined by dilution of CFSE and dead cells were identified by staining with TOP-RO-3.

Molecule | level of ANA staining ([1]; 10 μg/ml, among DVD3751-DVD3760) | ANA score [1] | ANA score, relative result [1] | ANA, immunofluorescent HEp-2 staining ([1]; Example 6, 5 μg/ml, FIG. 8C) | response of DKO B cells [2] | response of TKO B cells [3] | effect of addition of BLyS on cell death ([4]; 0.05 μg/ml BLyS) | cell division (CFSE dilution) and cell death (TO-PRO-3) ([4]; 0.5 μg/ml)
DVD3754: DVD-Ig: VD1 DNA(PA4), SL linker, VD2 mIgM (B7.6); heavy SEQ ID NO 54, light 55 (antibody) heavy: EVQLVESGGGLVKPGGSLKLSCVASGFTFSTYAMSWVRQTPTKRLEWVATISRGGVSTYYPDTVKGRFTISRDNAKNTLYLQMSSLRSEDTAMYYCARPPTIVTTWFAYWGQGTLVTVSSASTKGPQVQLKESGPGLVKPSLTLSLTCTVSGFSLNGYGVIWVRQPPGKGLEWMGVIWGNGNTNYNSTLKSRLSISRDTSKSQVFLKMNNLQTEDTAMYFCARSENYYSSPGYFAYWGQGTLVTVSS light: DVVMTQTPLSLPVSLGDQASISCRSSQSLVHSNGNTYLHWYLQKPGQSPKLLIYKVSNRFSGVPDRFSGSGSGTDFTLKISRVEAEDLGAYFCSQSTHVPYTFGGPTRLEIKRTVAAPSVFIFPPNTVMTQSPTSMFISVGDRVTMNCKASQNVGSDVDWYQQKTGQSPKLLISGTSNRYTGVPDRFTGSGSGTDFTLTISNMQAEDLAVYYCLQYNYNPTFGAGTKLELKR | highest level of staining | 4.5 | (XXX) | high ANA score | failed to respond | failed to respond | – | –
DVD3759: DVD-Ig: VD1 mIgM (B7.6), SL linker, VD2 DNA(PA4); heavy SEQ ID NO 64, light 65 (antibody) heavy: QVQLKESGPGLVKPSLTLSLTCTVSGFSLNGYGVIWVRQPPGKGLEWMGVIWGNGNTNYNSTLKSRLSISRDTSKSQVFLKMNNLQTEDTAMYFCARSENYYSSPGYFAYWGQGTLVTVSSASTKGPEVQLVESGGGLVKPGGSLKLSCVASGFTFSTYAMSWVRQTPTKRLEWVATISRGGVSTYYPDTVKGRFTISRDNAKNTLYLQMSSLRSEDTAMYYCARPPTIVTTWFAYWGQGTLVTVSS light: NTVMTQSPTSMFISVGDRVTMNCKASQNVGSDVDWYQQKTGQSPKLLISGTSNRYTGVPDRFTGSGSGTDFTLTISNMQAEDLAVYYCLQYNYNPTFGAGTKLELKRTVAAPSVFIFPPDVVMTQTPLSLPVSLGDQASISCRSSQSLVHSNGNTYLHWYLQKPGQSPKLLIYKVSNRFSGVPDRFSGSGSGTDFTLKISRVEAEDLGAYFCSQSTHVPYTFGGPTRLEIKR | – | 3.5 | (XX) | – | – | – | could be rescued | induced several rounds of division followed by post-proliferative cell death
